Data: patent publication CN111171151A (FOSHAN CANTON BIOTECHNOLOGY CO LTD; UNIV JINAN, dated 2020)

How the values were obtained:
[1] = target: T1, EGFR-ECD 3 重组蛋白 (EGFR胞外段结构域3) (UniProt P00533 334-504, limits assumed); test: ELISA, coated proteins 100 ng/well (EGFR-ECD3 against EGF, bFGF, Her2), anti-HA detection
T1 construct: domain: EGFR胞外段结构域3 (EGFR-ECD 3); Secreted from transiently transfected 293F cells (pCMV-EGFR-ECD3) and purified on a nickel column; also called EGFR胞外段的CD3区域片段; EGFR-ECD 3 纯化蛋白; not shown: purified on a nickel column, detected with anti

[2] = target: T1, EGFR-ECD 3 重组蛋白 (EGFR胞外段结构域3); test: ELISA, coated EGFR-ECD3 100 ng/well, NbH3 from 40 μg/mL in 1:2 dilutions

ratio of binding (OD) against the other control proteins [1]: > 2
EC50 [2]: 8.76 µg/mL
B1: 抗EGFR纳米抗体 Nb H3 (VHH)
VHH: QVQLQESGGGSVQAGGSLNLSCAVSGYTGCKNGMSWYRQAPGKEREFVSGIDRDGSPSYADSVKGRFTISQDNAKNIVFLQMNSLRPEDTAMYYCATNPQRNIYGGSWCNYWGQGTQVTVSS
notes: From a Bactrian camel immunised with EGFR-ECD3; expressed in E. coli WK6 from the pComb-3X plasmid and purified on a nickel column; not shown: tags from the pComb-3X vector (purified on a nickel column, detected with anti-H)
